B1: Pseudomonas aeruginosa aspartate transcarbamoylase catalytic chain (enzyme, Pseudomonas aeruginosa (strain PAO1), UniProt Q59653 1-334, looked up)
chain: MPTDAKRPLQLNDQGQLRHFISLDGLPRELLTEILDTADSFLEVGARAVKKVPLLRGKTVCNVFFENSTRTRTTFELAAQRLSADVISLNVSTSSTSKGETLTDTLRNLEAMAADMFVVRHSDSGAAHFIAEHVSPNVAVINGGDGRHAHPTQGMLDMLTIRRHKGNFEQLSVAIVGDILHSRVARSNMLALKTLGCPDIRVIAPRTLLPIGLEEQYGVRVFTNADEGLKDVDVVIMLRLQRERMQGGLLPSEGEFFKLYGLTEKRLKLAKPDAIVMHPGPINRGVEIESAVADGAQSVILNQVTYGIAIRMAVLSMAMSGQNTQRQLEQEDAE
notes: Aspartate transcarbamoylase (ATCase) catalytic chain of Pseudomonas aeruginosa strain PAO1, gene pyrB; about 36-37 kDa; The pyrB gene was amplified by PCR and put into pETite; Removal of the His tag is not mentioned; also called ATCase; ATCase subunit
B2: Pseudomonas aeruginosa pseudo dihydroorotase (natural protein, Pseudomonas aeruginosa (strain PAO1), UniProt Q51551 1-423, looked up)
chain: MTISIRGARVIDPASDLDQVGDLHIEAGKIVAIGAAPAGFSAQKTLDGAGLVAAPGLVDLSVALREPGYGRKGNVESETRAAAAGGTTSLCCPPYTRPVLDTPAVAELILDRAREAGNAKVYPIGALTRGFGGEQLSELVALRDTGCVAFTNGLHGFASNRILRRALEYAATFDLTVIFTSQDTDLAEGGLAHEGPTASFLGLAGIPETAETVALARNLLLVEQSGVRAHFSQLTSARGIELVAQAQARGLPVTCDVALYQLILTDEALVGFSSLYHVQPPLRTRADREALREAVKNGVVQAIASHHQPHEADAKNAPFAATEPGISGAELLLPLAMTLVQDGLLDLPTLLARLSHGPAQALRLPAGRLAVGQAADLVLFDPQGSTLAGESWYSKGQNSPFVGHCLPGRVRYTLVDGHLTHEG
notes: Dimer by size exclusion chromatography; also called pDHO; pseudo-DHO; source: also co-transformed and co-purified with mutant ATCases

Experiments:
[1] = target: T1, P. aeruginosa ATCase-pDHO complex (Pseudomonas aeruginosa, UniProt Q59653); test: colorimetric ATCase assay, carbamoyl phosphate saturation curves; type: biochemical; conditions: 8 mM aspartate, 37°C; PALA 0-500 nM; bisubstrate inhibitor
T1 construct: gene pyrB; both full-length subunits with N-terminal 6xHis tag (pETite), E. coli BL21(DE3), Ni-purified, mixed 1:1; 37 kDa + 45 kDa, 457 kDa dodecamer; with Dihydroorotase-like protein
T1 sequence (Q59653 1-334): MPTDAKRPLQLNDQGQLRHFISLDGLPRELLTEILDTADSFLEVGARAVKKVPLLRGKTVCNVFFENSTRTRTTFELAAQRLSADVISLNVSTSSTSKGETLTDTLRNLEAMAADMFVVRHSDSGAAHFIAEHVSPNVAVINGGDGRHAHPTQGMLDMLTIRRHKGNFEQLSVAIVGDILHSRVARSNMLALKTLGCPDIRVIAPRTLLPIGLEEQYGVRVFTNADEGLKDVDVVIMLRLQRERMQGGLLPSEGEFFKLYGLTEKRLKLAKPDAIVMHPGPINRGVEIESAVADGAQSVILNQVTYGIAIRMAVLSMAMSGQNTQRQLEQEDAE
T1 sequence (Q51551 1-423 partner): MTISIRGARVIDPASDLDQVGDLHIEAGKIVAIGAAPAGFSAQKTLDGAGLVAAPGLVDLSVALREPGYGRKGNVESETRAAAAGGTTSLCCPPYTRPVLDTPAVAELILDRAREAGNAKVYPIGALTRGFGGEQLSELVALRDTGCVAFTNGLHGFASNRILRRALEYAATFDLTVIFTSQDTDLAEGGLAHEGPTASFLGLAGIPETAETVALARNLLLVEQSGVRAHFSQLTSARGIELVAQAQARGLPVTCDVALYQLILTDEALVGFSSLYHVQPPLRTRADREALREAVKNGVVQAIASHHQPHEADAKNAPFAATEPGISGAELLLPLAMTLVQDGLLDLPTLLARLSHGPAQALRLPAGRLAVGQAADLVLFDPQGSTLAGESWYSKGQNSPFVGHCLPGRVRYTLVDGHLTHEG

purified protein [2] = substrate: NC(=O)OP(=O)(O)O; test: purified protein; type: biochemical, Pseudomonas aeruginosa; conditions: 8 mM aspartate, 50 mM Tris/acetate pH 8.3, 37°C, Hill fit, text b47 prints 2.5 mM, Table 3 (0 ATP series) 0.88 ± 0.03 mM
purified protein [3] = substrate: N[C@@H](CC(=O)O)C(=O)O; test: purified protein; type: biochemical, Pseudomonas aeruginosa; conditions: 10 mM carbamoyl phosphate, 50 mM Tris/acetate pH 8.3, 37°C, Hill fit
[4] = target: B2; test: SEC; complex reconstituted by mixing equimolar amounts of ATCase and pDHO; Superdex S-200, 50 mM Tris-HCl pH 7.5, 200 mM NaCl; fractions on SDS-PAGE; conditions: both partners purified
[5] = target: the molecule itself; test: SEC; each Ni2+ column purified protein applied alone; Superdex S-200, 50 mM Tris-HCl pH 7.5, 200 mM NaCl; 2-mL sample of 5-10 mg/ml; calibrated column
[6] = target: B1; test: cell-based or functional assay

## O=C(O)C[C@H](NC(=O)CP(=O)(O)O)C(=O)O [N-phosphonacetyl-L-aspartate]
[1]
  colorimetric ATCase assay, carbamoyl phosphate saturation curves: N-phosphonacetyl-L-aspartate is also a potent inhibitor of the of the P. aeruginosa enzyme

## B1
Purified protein [2]
  K0.5: 2.8 ± 0.18 mM
  Vmax: 142 µmol/min/mg
  kcat: 87.6 s⁻¹
  kcat/Km: 31000 M⁻¹ s⁻¹
Purified protein [3]
  K0.5: 3.6 ± 0.41 mM
  Vmax: 183 µmol/min/mg
  kcat: 113 s⁻¹
  kcat/Km: 31000 M⁻¹ s⁻¹
[4]
  binding result: binds

## B2
[5]
  stoichiometry N: 2
[6]
  ATCase activity of a fixed amount of ATCase (4 ug) titrated with pDHO (0-24.3 ug); molar ratio of ATCase to pDHO at which the activity levels off: 0.97 mol pDHO per mol ATCase

— PMC7053772, “Characterization and assembly of the Pseudomonas aeruginosa aspartate transcarbamoylase-pseudo dihydroorotase complex” (PLoS ONE, 2020)
